Results taken from patent US20220289850 (published 2022).

Biological target: T1, mouse integrin avb8 (mouse)
T1 chain 1: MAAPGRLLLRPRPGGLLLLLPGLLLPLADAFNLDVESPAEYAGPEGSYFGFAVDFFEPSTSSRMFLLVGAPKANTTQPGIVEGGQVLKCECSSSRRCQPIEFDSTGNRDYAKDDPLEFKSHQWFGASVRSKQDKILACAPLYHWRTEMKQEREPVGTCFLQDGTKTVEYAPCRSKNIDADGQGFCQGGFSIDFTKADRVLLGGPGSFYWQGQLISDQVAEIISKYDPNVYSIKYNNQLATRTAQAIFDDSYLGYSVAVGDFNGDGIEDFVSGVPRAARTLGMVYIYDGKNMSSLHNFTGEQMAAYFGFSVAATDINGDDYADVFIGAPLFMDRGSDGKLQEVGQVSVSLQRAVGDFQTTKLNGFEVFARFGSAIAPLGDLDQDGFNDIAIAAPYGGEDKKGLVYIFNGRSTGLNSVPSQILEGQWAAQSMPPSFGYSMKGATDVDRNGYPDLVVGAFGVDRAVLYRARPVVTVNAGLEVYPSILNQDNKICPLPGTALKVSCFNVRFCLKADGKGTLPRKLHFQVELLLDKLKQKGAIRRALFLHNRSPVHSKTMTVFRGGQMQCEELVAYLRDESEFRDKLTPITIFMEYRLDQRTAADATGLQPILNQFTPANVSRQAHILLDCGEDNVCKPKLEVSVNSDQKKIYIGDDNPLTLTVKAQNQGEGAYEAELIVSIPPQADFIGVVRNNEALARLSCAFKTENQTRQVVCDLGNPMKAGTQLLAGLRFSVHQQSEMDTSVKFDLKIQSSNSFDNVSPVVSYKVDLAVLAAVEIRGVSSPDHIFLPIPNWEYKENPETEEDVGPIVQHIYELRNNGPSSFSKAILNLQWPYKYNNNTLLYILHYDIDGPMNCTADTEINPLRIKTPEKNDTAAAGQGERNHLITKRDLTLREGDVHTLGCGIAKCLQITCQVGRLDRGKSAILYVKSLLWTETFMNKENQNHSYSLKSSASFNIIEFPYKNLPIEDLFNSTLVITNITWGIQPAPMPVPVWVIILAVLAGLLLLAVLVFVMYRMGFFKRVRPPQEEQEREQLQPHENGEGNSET
T1 chain 2: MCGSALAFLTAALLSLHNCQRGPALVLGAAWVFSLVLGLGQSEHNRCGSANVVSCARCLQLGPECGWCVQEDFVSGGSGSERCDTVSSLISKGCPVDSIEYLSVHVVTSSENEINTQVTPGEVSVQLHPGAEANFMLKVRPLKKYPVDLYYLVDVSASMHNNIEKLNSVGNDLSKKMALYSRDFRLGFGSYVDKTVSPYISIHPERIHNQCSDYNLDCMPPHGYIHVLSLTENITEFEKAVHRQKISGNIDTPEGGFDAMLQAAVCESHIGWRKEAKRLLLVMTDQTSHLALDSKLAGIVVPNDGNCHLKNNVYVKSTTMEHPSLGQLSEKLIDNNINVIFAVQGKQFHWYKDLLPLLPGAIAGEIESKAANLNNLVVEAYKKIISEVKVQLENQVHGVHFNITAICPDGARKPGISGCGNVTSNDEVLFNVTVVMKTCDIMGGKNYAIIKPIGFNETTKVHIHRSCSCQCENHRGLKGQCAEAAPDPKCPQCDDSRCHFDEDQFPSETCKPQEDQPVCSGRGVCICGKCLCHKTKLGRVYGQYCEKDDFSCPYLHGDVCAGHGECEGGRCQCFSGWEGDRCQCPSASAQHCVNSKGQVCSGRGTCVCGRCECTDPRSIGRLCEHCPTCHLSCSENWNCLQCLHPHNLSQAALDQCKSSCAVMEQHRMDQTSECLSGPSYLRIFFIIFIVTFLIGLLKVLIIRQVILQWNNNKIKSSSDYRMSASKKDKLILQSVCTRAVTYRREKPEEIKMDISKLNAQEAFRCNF
Test: SPR

Kd: 0.0708 nM
B1: ADWA11 2.4 Fab (antibody, V domains shown)
VH: EVQLVESGGGLVQPGGSLRLSCAASGFNIKDYYMNWVRQAPGKGLEWVGWIDPDQGNTIYEPKFQGRFTISADTSKNSAYLQMNSLRAEDTAVYYCARRLLMDYWGQGTLVTVSS
VL: DIQMTQSPSSLSASVGDRVTITCRSTKSLSHFNGNTYLFWYQQKPGKAPKRLIYYMSSLASGVPSRFSGSGSGTDFTLTISSLQPEDFATYYCQQSLEYPFTFGGGTKVEIK
